# According to article PMC9482650, “Quantitative fragmentomics allow affinity mapping of interactomes” (Nature Communications, 2022):
# Legend:
# Test in all cases: holdup assay
# Parameters in all cases: key: below the threshold = too weak to quantify, mostly under pKd 3.1 to 4
# ARHGEF12, Q9NZN5-2 = target: ARHGEF12, Q9NZN5-2
# DFNB31_1, Q9P202 = target: T1, DFNB31_1, Q9P202
# T1 sequence (Q9P202 135-233, limits assumed, looked up): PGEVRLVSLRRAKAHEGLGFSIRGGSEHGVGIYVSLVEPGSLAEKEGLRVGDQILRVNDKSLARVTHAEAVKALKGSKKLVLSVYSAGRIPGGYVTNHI
# DLG1_2, Q12959 = target: DLG1_2, Q12959
# DLG4_1, P78352 = target: DLG4_1, P78352
# GRIP1_3, Q9Y3R0 = target: T2, GRIP1_3, Q9Y3R0
# T2 sequence (Q9Y3R0 247-346, limits assumed, looked up): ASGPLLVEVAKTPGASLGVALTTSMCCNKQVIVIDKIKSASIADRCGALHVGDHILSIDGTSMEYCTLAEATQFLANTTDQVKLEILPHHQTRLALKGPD
# GRIP2_4, Q9C0E4 = target: GRIP2_4, Q9C0E4
# HTRA4, P83105 = target: T3, HTRA4, P83105
# T3 sequence (P83105 378-476, limits assumed, looked up): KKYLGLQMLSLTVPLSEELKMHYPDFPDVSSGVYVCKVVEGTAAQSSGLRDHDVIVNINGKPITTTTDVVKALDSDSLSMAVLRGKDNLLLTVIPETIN
# IL16_1, Q14005 = target: IL16_1, Q14005
# Inadl_2, Q8NI35 = target: Inadl_2, Q8NI35
# Inadl_5, Q8NI35 = target: Inadl_5, Q8NI35
# LAP2, Q96RT1 = target: LAP2, Q96RT1
# LIN7A, O14910 = target: T4, LIN7A, O14910
# T4 sequence (O14910 103-200, limits assumed, looked up): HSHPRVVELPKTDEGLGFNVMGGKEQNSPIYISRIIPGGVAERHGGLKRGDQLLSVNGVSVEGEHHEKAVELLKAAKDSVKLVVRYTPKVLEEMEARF
# LRRC7, Q96NW7 = target: T5, LRRC7, Q96NW7
# T5 sequence (Q96NW7 1440-1537, limits assumed, looked up): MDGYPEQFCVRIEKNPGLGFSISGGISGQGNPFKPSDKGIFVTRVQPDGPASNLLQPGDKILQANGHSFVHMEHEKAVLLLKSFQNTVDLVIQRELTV
# MAGI1_2, Q96QZ7 = target: MAGI1_2, Q96QZ7
# MAST2, Q6P0Q8 = target: MAST2, Q6P0Q8
# MPP7, Q5T2T1 = target: T6, MPP7, Q5T2T1
# T6 sequence (Q5T2T1 134-230, limits assumed, looked up): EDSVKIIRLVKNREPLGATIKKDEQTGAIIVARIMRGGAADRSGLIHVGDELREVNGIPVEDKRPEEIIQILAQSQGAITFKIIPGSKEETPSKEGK
# NHERF3_1, Q5T2W1 = target: T7, NHERF3_1, Q5T2W1
# T7 sequence (Q5T2W1 4-100, limits assumed, looked up): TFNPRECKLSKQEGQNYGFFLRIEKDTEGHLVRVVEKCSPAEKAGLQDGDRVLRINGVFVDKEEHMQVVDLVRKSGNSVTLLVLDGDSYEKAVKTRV
# NHERF3_4, Q5T2W1 = target: T8, NHERF3_4, Q5T2W1
# T8 sequence (Q5T2W1 373-468, limits assumed, looked up): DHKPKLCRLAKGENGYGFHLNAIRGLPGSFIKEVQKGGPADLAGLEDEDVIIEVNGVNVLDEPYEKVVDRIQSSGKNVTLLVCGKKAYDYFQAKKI
# PARD3_3, Q8TEW0 = target: PARD3_3, Q8TEW0
# PCLO, Q9Y6V0 = target: T9, PCLO, Q9Y6V0
# T9 sequence (Q9Y6V0 4491-4600, limits assumed, looked up): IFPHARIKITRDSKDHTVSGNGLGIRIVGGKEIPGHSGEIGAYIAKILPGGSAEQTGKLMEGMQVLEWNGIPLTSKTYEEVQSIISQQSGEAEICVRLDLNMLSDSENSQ
# PDZRN3_1, Q9UPQ7 = target: T10, PDZRN3_1, Q9UPQ7
# T10 sequence (Q9UPQ7 244-349, limits assumed, looked up): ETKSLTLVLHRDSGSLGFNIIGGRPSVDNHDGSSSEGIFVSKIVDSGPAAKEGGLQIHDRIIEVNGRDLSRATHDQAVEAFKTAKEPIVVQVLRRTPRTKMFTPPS
# PICK1, Q9NRD5 = target: PICK1, Q9NRD5
# RADIL, Q96JH8 = target: T11, RADIL, Q96JH8
# T11 sequence (Q96JH8 971-1071, limits assumed, looked up): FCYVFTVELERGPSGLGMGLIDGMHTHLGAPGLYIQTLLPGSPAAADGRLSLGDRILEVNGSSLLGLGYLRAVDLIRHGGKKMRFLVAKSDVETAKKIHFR
# RHPN1, Q8TCX5 = target: T12, RHPN1, Q8TCX5
# T12 sequence (Q8TCX5 508-602, limits assumed, looked up): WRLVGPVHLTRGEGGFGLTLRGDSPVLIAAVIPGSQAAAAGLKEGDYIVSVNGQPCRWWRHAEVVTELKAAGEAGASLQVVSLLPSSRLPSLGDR
# [1] = plain residues with an end cap or a label only (N-terminal biotin on a linker: ttds)
# [2] = plain residues with an end cap or a label only (N-terminal biotin on a linker: ahx)
# [3] = plain residues with an end cap or a label only (N-terminal biotin on a linker: ado-ado)
# Sequence of LAP2, Q96RT1 (Q96RT1 other isoform, or with tags, fused parts or gaps): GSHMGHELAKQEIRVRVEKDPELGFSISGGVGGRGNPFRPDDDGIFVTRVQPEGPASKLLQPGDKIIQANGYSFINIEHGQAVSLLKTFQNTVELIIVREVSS
# Sequence of MAST2, Q6P0Q8 (Q6P0Q8 1099-1202): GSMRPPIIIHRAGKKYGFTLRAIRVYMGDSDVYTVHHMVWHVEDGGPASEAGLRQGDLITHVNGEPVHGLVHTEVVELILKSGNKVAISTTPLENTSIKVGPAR
# Sequence of ARHGEF12, Q9NZN5-2 (Q9NZN5 other isoform, or with tags, fused parts or gaps): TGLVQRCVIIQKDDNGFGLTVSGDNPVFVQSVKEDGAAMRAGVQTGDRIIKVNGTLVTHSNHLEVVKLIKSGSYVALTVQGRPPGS
# Sequence of PICK1, Q9NRD5 (Q9NRD5 17-115): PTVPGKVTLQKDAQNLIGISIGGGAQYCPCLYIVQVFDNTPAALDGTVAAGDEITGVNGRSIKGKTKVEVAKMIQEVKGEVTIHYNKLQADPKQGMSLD
# Sequence of PARD3_3, Q8TEW0 (Q8TEW0 582-685): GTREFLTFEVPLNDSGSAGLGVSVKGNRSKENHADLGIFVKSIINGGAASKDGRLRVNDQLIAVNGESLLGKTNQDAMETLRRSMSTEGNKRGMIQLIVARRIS
# Sequence of Inadl_5, Q8NI35 (Q8NI35 673-780): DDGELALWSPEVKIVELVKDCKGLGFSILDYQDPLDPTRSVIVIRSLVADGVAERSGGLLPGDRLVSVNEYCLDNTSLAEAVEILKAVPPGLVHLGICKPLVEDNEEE
# Sequence of DLG4_1, P78352 (P78352 62-152): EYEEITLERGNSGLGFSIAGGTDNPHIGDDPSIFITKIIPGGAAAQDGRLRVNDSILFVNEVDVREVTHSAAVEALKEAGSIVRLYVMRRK
# Sequence of IL16_1, Q14005 (Q14005 210-306): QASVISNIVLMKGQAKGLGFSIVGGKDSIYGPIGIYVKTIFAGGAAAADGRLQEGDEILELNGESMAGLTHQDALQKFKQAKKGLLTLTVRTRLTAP
# Sequence of Inadl_2, Q8NI35 (Q8NI35 238-335): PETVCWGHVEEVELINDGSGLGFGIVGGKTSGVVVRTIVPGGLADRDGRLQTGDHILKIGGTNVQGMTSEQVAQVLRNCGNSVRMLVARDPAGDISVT
# Sequence of GRIP2_4, Q9C0E4 (Q9C0E4 446-548): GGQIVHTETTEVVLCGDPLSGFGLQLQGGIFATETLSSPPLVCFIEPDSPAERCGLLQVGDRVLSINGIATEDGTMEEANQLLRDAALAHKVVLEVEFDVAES
# Sequence of DLG1_2, Q12959 (Q12959 314-412): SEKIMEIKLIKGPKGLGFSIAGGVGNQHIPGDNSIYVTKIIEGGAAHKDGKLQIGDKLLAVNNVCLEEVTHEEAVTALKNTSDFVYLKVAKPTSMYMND
# Sequence of MAGI1_2, Q96QZ7 (Q96QZ7 456-580): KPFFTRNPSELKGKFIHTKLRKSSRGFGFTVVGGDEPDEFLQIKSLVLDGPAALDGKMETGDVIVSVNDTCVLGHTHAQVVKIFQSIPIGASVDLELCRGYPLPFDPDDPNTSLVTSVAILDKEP
binder,measurement,setting,value
"IQREDQETAV [DGKZ, Q13574]",pKd,"ARHGEF12, Q9NZN5-2; [1]",4.22
same,pKd,"DFNB31_1, Q9P202; [1]",4.81
same,pKd,"DLG1_2, Q12959; [1]",5.16
same,pKd,"DLG4_1, P78352; [1]",4.72
same,pKd,"GRIP1_3, Q9Y3R0; [1]",below the threshold
same,pKd,"GRIP2_4, Q9C0E4; [1]",below the threshold
same,pKd,"HTRA4, P83105; [1]",below the threshold
same,pKd,"IL16_1, Q14005; [1]",4.38
same,pKd,"Inadl_2, Q8NI35; [1]",below the threshold
same,pKd,"Inadl_5, Q8NI35; [1]",below the threshold
same,pKd,"LAP2, Q96RT1; [1]",4.54
same,pKd,"LIN7A, O14910; [1]",below the threshold
same,pKd,"LRRC7, Q96NW7; [1]",below the threshold
same,pKd,"MAGI1_2, Q96QZ7; [1]",below the threshold
same,pKd,"MAST2, Q6P0Q8; [1]",5.76
same,pKd,"MPP7, Q5T2T1; [1]",below the threshold
same,pKd,"NHERF3_1, Q5T2W1; [1]",5.14
same,pKd,"NHERF3_4, Q5T2W1; [1]",below the threshold
same,pKd,"PARD3_3, Q8TEW0; [1]",below the threshold
same,pKd,"PCLO, Q9Y6V0; [1]",below the threshold
same,pKd,"PDZRN3_1, Q9UPQ7; [1]",4.91
same,pKd,"PICK1, Q9NRD5; [1]",below the threshold
same,pKd,"RADIL, Q96JH8; [1]",below the threshold
same,pKd,"RHPN1, Q8TCX5; [1]",4.35
"MERLRVETDV [ARHGEF16, Q5VV41]",pKd,"ARHGEF12, Q9NZN5-2; [1]",4.22
same,pKd,"DFNB31_1, Q9P202; [1]",below the threshold
same,pKd,"DLG1_2, Q12959; [1]",5.5
same,pKd,"DLG4_1, P78352; [1]",5.13
same,pKd,"GRIP1_3, Q9Y3R0; [1]",below the threshold
same,pKd,"GRIP2_4, Q9C0E4; [1]",below the threshold
same,pKd,"HTRA4, P83105; [1]",3.74
same,pKd,"IL16_1, Q14005; [1]",below the threshold
same,pKd,"Inadl_2, Q8NI35; [1]",below the threshold
same,pKd,"Inadl_5, Q8NI35; [1]",below the threshold
same,pKd,"LAP2, Q96RT1; [1]",4.39
same,pKd,"LIN7A, O14910; [1]",below the threshold
same,pKd,"LRRC7, Q96NW7; [1]",3.81
same,pKd,"MAGI1_2, Q96QZ7; [1]",3.9
same,pKd,"MAST2, Q6P0Q8; [1]",5.56
same,pKd,"MPP7, Q5T2T1; [1]",3.54
same,pKd,"NHERF3_1, Q5T2W1; [1]",below the threshold
same,pKd,"NHERF3_4, Q5T2W1; [1]",below the threshold
same,pKd,"PARD3_3, Q8TEW0; [1]",below the threshold
same,pKd,"PCLO, Q9Y6V0; [1]",below the threshold
same,pKd,"PDZRN3_1, Q9UPQ7; [1]",3.53
same,pKd,"PICK1, Q9NRD5; [1]",below the threshold
same,pKd,"RADIL, Q96JH8; [1]",below the threshold
same,pKd,"RHPN1, Q8TCX5; [1]",4.18
"KTSAHHATFV [RGS12, O14924]",pKd,"ARHGEF12, Q9NZN5-2; [2]",3.82
same,pKd,"DFNB31_1, Q9P202; [2]",3.61
same,pKd,"DLG1_2, Q12959; [2]",4.15
same,pKd,"DLG4_1, P78352; [2]",4.22
same,pKd,"GRIP1_3, Q9Y3R0; [2]",below the threshold
same,pKd,"GRIP2_4, Q9C0E4; [2]",below the threshold
same,pKd,"HTRA4, P83105; [2]",3.97
same,pKd,"IL16_1, Q14005; [2]",below the threshold
same,pKd,"Inadl_2, Q8NI35; [2]",below the threshold
same,pKd,"Inadl_5, Q8NI35; [2]",3.86
same,pKd,"LAP2, Q96RT1; [2]",4.34
same,pKd,"LIN7A, O14910; [2]",below the threshold
same,pKd,"LRRC7, Q96NW7; [2]",3.59
same,pKd,"MAGI1_2, Q96QZ7; [2]",4.03
same,pKd,"MAST2, Q6P0Q8; [2]",4.33
same,pKd,"MPP7, Q5T2T1; [2]",below the threshold
same,pKd,"NHERF3_1, Q5T2W1; [2]",4.41
same,pKd,"NHERF3_4, Q5T2W1; [2]",below the threshold
same,pKd,"PARD3_3, Q8TEW0; [2]",below the threshold
same,pKd,"PCLO, Q9Y6V0; [2]",below the threshold
same,pKd,"PDZRN3_1, Q9UPQ7; [2]",below the threshold
same,pKd,"PICK1, Q9NRD5; [2]",below the threshold
same,pKd,"RADIL, Q96JH8; [2]",5.28
same,pKd,"RHPN1, Q8TCX5; [2]",4.03
"SVVSERISSV [HTR2C, P28335]",pKd,"ARHGEF12, Q9NZN5-2; [3]",4.18
same,pKd,"DFNB31_1, Q9P202; [3]",below the threshold
same,pKd,"DLG1_2, Q12959; [3]",4.74
same,pKd,"DLG4_1, P78352; [3]",3.94
same,pKd,"GRIP1_3, Q9Y3R0; [3]",below the threshold
same,pKd,"GRIP2_4, Q9C0E4; [3]",below the threshold
same,pKd,"HTRA4, P83105; [3]",below the threshold
same,pKd,"IL16_1, Q14005; [3]",4.56
same,pKd,"Inadl_2, Q8NI35; [3]",below the threshold
same,pKd,"Inadl_5, Q8NI35; [3]",below the threshold
same,pKd,"LAP2, Q96RT1; [3]",below the threshold
same,pKd,"LIN7A, O14910; [3]",below the threshold
same,pKd,"LRRC7, Q96NW7; [3]",below the threshold
same,pKd,"MAGI1_2, Q96QZ7; [3]",below the threshold
same,pKd,"MAST2, Q6P0Q8; [3]",4.78
same,pKd,"MPP7, Q5T2T1; [3]",below the threshold
same,pKd,"NHERF3_1, Q5T2W1; [3]",below the threshold
same,pKd,"NHERF3_4, Q5T2W1; [3]",below the threshold
same,pKd,"PARD3_3, Q8TEW0; [3]",below the threshold
same,pKd,"PCLO, Q9Y6V0; [3]",below the threshold
same,pKd,"PDZRN3_1, Q9UPQ7; [3]",3.51
same,pKd,"PICK1, Q9NRD5; [3]",below the threshold
same,pKd,"RADIL, Q96JH8; [3]",3.74
same,pKd,"RHPN1, Q8TCX5; [3]",4.65
